The text below walks through data of patent publication US20240280570A1.

By Kd is commonly meant the free concentration of one partner at which half of the binding sites on the other are occupied at equilibrium, for simple one-to-one binding. A lower Kd goes with a tighter complex.

Where two headings read alike, the source gives them in different places.

Test [1] has as its target SARS-CoV-2 S1 (Sino Biological 40591-V08B1); Spike Protein S1 subunit residues 1 - 685(R) His tagged (SARS-CoV-2) (UniProt P0DTC2).
Test [2] deals with MCA-SpyTag peptide.
The target of test [3] is SARS-CoV-2 S1 (Sino Biological 40591-V08B1); Spike Protein S1 subunit residues 1 - 685(R) His tagged (SARS-CoV-2) (UniProt P0DTC2). Briefly: method not stated at this place (SPR of viral targets is described in paragraph 219).
The target is the same in test [4]. Description: OECT sensor, PEDOT:PSS channel, nanobody on gate, target in buffer.
The target is the same in test [5]. The source holds these as a separate data set.
For test [6] the target is unchanged. The source holds these as a separate data set.
Test [7] has the same target. The source holds these as a separate data set.
Test [8] has as its target MCA-SpyTag peptide. Description: QCM-D, SpyTag peptide on HDT-coated gold, without BSA (data not shown).
Test [9] addresses SARS-CoV-1 RBD (Sino Biological 40150-V08B2); Spike Receptor Binding Domain residues R306 - F527 His tagged (SARS-CoV-1) (UniProt P59594). Description: OECT sensor, PEDOT:PSS channel, nanobody on gate, target in buffer.
The target is the same in test [10].

With “VHH72-8 aa-spyCatcher-3C cleavage site-His8”, the normalized response (NR) in [1] is 30%. Besides, the mass density bound (QCM-D) with MCA-SpyTag peptide [2] was 430 ng cm-2; with MCA-SpyTag peptide [8], 407 ng cm-2. This substance also showed a Kd in test [3] of 23 nM. The LOD in test [4] was found to be 0.00028 pM; in test [5] it was 0.019 pM; in test [6] it was 1.2e-09 pM; in test [7], 1.8e-08 pM. Further, the molecules bound per cm2 (QCM-D) (nanobodies per cm^2) with MCA-SpyTag peptide [8] was determined as 8.4e+12.
As to “VHH72-8 aa-spyCatcher-3C cleavage site-His8 (VHH; other documents disagree on this pair)”, the LOD in [9] turned out to be 0.0015 pM; in test [10], 1.6e-05 pM.
